“And” between values parts separate entries of the source, which are not always exact repeats. Equal values may be shown once.
How the values were obtained:
[1] = target: T1, Sf9 cells expressing αβ^Cys105 sGC (Homo sapiens, UniProt Q02108+Q02153, H105C); experiment: cGMP accumulation in intact Sf9 cells expressing αβ^Cys105 sGC; format: cell-based
T1 construct: expressed in transfected cells; host or cells: Sf9 cells infected with baculoviruses
T1 sequence (Q02153 1-619 H105C): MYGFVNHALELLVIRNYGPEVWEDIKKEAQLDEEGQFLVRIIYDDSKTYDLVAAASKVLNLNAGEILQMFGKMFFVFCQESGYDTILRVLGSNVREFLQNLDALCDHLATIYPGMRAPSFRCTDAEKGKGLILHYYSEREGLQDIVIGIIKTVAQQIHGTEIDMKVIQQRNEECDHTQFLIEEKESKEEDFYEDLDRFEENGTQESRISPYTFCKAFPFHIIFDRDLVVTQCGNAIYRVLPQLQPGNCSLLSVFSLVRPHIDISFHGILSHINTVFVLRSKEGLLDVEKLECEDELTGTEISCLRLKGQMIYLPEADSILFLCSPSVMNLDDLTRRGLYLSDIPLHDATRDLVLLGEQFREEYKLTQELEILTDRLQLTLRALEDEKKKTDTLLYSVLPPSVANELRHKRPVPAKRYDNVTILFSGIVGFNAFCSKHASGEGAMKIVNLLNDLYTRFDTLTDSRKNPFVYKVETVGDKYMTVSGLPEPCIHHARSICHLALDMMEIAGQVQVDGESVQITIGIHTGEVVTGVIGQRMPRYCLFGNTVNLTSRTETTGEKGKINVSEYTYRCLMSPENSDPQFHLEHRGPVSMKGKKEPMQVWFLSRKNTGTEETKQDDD
T1 sequence (Q02108 1-690): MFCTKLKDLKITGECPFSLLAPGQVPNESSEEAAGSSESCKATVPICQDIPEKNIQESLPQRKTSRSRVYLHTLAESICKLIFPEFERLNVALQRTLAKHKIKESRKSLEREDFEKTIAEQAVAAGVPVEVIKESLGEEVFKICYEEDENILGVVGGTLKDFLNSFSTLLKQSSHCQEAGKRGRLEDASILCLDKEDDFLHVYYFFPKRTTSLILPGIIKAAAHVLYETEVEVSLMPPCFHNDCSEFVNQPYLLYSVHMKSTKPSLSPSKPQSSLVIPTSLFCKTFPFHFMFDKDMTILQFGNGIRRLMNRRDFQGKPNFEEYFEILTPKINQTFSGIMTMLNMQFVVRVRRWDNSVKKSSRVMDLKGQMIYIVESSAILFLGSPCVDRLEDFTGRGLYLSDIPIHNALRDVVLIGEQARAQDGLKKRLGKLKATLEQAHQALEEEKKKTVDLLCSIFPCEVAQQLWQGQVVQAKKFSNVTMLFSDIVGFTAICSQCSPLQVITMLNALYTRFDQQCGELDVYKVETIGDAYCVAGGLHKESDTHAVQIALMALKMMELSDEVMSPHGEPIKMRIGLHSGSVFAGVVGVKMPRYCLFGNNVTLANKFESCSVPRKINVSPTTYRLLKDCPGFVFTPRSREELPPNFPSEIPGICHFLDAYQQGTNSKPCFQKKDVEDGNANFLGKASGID
Method: Assay of cGMP Accumulation in Intact Cells. […] The reaction was terminated by addition of 50 μl of 1 M perchloric acid and cGMP was extracted on ice for 1 h. The extract was centrifuged, neutralized with 2M K2CO3 and used for cGMP determination by radioimmunoassay (9, 27). The pellet was dissolved in 0.1 M NaOH and used for protein assay by the method of Lowry (28).
Accumulated cGMP was extracted and quantified as described in Materials and Methods. Values are shown as means±s.d. The differences in intracellular accumulation of cGMP in Sf9 cells expressing the wild type enzyme or the mutant form are discussed below.

αβ^Cys105 mutant sGC = target: T2, αβ^Cys105 mutant sGC (Homo sapiens, UniProt Q02108+Q02153, H105C); experiment: Assay of sGC activity ([32P]cGMP formation from GTP), purified αβ^Cys105 mutant enzyme; format: biochemical; conditions: for PPIX activation, fold: 1 μM PPIX
T2 construct: made in house; host or cells: Sf9 cells (baculovirus)
T2 sequence (Q02153 1-619 H105C): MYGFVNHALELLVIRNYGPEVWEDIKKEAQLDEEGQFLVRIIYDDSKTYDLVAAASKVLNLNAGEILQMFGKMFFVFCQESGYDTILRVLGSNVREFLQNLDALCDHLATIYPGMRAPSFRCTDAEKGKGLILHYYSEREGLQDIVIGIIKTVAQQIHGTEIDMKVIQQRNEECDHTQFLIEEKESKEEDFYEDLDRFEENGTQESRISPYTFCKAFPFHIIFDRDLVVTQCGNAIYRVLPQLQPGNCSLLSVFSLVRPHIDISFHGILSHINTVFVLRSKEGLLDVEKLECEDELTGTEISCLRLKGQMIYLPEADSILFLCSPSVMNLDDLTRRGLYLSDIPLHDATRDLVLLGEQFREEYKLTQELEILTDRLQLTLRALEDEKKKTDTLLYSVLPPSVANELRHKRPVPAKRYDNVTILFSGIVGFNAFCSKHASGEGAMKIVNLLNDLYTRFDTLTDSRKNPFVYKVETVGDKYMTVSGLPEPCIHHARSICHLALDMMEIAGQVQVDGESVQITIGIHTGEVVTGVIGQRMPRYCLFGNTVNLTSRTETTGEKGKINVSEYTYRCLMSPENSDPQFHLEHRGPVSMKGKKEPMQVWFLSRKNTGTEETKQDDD
T2 sequence (Q02108 1-690): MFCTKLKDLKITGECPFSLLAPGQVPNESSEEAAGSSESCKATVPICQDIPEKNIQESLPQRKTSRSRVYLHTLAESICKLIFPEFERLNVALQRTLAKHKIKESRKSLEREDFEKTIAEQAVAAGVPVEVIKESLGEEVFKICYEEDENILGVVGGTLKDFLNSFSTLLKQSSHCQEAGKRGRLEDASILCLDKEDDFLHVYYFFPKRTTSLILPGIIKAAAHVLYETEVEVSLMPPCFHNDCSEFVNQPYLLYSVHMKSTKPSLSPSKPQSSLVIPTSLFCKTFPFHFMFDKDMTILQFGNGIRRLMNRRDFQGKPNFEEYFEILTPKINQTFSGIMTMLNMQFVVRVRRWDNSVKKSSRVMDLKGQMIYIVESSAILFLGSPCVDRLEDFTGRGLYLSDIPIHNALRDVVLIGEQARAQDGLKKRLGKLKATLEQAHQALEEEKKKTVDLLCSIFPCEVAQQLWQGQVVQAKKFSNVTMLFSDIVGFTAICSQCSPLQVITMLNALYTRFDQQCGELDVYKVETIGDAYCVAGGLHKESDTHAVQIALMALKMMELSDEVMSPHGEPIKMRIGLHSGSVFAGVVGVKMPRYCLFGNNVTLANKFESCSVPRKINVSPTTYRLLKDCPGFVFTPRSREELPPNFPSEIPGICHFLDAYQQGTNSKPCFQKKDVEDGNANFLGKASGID
Method: sGC Expression and Purification. […] Purification of sGC was performed as described earlier (26), the disclosure of which is hereby incorporated herein by reference, with the following modifications. Cells were harvested 72 h post infection, resuspended in loading buffer (25 mM triethanolamine, pH 7.5. 10 glycerol, 4 mM MgCl2 and 1 mM phenylmethylsulfonyl fluoride, and 5 μg/ml each of pepstatin A, leupeptin, aprotinin, and chymostatin,) and lysed by sonication. The lysate was subjected to 100,000×g centrifugation for 1 h. The high-speed supernate was loaded on a 60 ml DEAE-Sepharose (Amersham Pharmacia Biotech) column and washed with 60 ml of loading buffer without protease inhibitors. The proteins were eluted with loading buffer containing 250 mM NaCl and the eluate was directly loaded on a 30 ml His-Bind resin (Novagen) column. The column was washed with 60 ml of loading buffer followed by 60 ml of loading buffer with 45 mM imidazole. The enzyme was eluted with 175 mM imidazole and 2 ml fractions were collected. […] The enzyme at this stage was approximately 90–95% pure. To remove imidazole, sGC-containing fractions were diluted 3 fold with 25 mM triethanolamine pH 7.5, loaded on a 2 ml Hi-Trap DEAE-Sepharose column (Amersham Pharmacia Biotech), washed with 10 ml of loading buffer and eluted with 25 mM triethanolamine pH 7.5, 250 mM NaCl, 10 glycerol, 4 mM MgCl2, 0.5 mM EDTA, 0.5 mM EGTA. The enzyme obtained at this stage (95% or greater purity) was used for experiments.
Assay of sGC Activity. Enzyme activity was assayed by formation of [^32P] cGMP from α[^32P]GTP at 37° C. in a final volume of 100 μl. Incubation medium contained 50 mM triethanolamine-HCl buffer (pH 7.4), 1 mM 3-isobutyl-1-methylxanthine (IBMX), 1 mg/ml BSA. 1 mM cGMP, 3 mM MgCl2, 0.05 mg/ml creatine phosphokinase, 5 mM creatine phosphate, 0.1 mM EGTA. 200 μM GTP (about 10.000 cpm/pmol). The reaction was started by addition of the substrate (GTP) with or without activators. 1 mM DTT, GSH or cysteine were added to the incubation medium before the addition of GTP. Thiol concentration varied in some experiments as indicated. Samples containing 0.2 μg sGC were incubated for 10 or 15 min and the reaction was stopped by addition of 500 μl 150 mM zinc acetate and 500 μl 180 mM sodium carbonate. The pellet of zinc carbonate containing most of the unreacted GTP was removed by centrifugation and the supernatant fractions were loaded onto columns filled with 1 g of neutral alumina. Columns were then eluted with 10 ml 0.1 M Tris-HCl buffer (pH 7.5) and Cherenkov radiation in flow through plus eluate was counted in a LKB liquid scintillation spectrometer. Samples incubated in the absence of sGC were used as a negative control. The concentration of dimethylsulfoxide (DMSO) used as a vehicle for YC-1 was not higher than 0.1 and had no effect on sGC activity as determined previously.

basal cGMP accumulation relative to NO-activated cells overexpressing wild type enzyme [1]: about ten times higher | basal level of cGMP accumulation ([1]; basal, 0.5 mM IBMX): 33 nmol/mg/5 min | PPIX activation, fold (αβ^Cys105 mutant sGC; +DTT): 5.4 fold | PPIX activation, fold (αβ^Cys105 mutant sGC; No DTT): 1.8 fold
Substance: αβ^Cys105: heme-deficient, constitutively active human soluble guanylyl cyclase mutant; β subunit carries His105→Cys substitution
Km (αβ^Cys105 mutant sGC; +DTT): 153 ± 11 µM | Specific activity (αβ^Cys105 mutant sGC; +NO, with DTT, after heme reconstitution): 0.44 ± 0.08 µmol/min/mg | Specific activity (αβ^Cys105 mutant sGC; +NO, without DTT, after heme reconstitution): 1.2 ± 0.2 µmol/min/mg | Specific activity (αβ^Cys105 mutant sGC; Basal, with DTT (1 mM)): 0.12 ± 0.01 µmol/min/mg | Specific activity (αβ^Cys105 mutant sGC; Basal, without DTT): 1.2 ± 0.3 µmol/min/mg | Km (αβ^Cys105 mutant sGC; No DTT): ~150 µM and 150 µM | Specific activity (αβ^Cys105 mutant sGC; absence of thiols, n=4 independent purifications): 0.0012 ± 0.0003 µmol/min/mg | Specific activity (αβ^Cys105 mutant sGC; sample without any thiols (FIG. 1B, defined as 100)): 1e-06 ± 1e-07 µmol/min/mg

— US7214519B2, “Screening method for identifying heme independent modulators of soluble guanylyl cyclase (sGC) activity using αβCys105 mutant sGC” (Board of Regents of the University of Texas System, priority 2003, dated 2007)
